B1: RPAIN (parent)
chain: ISEYEKSLQFDEKCLSIMLAEWEA
B2: PCMTD2 (parent)
chain: FFIRTSDSFDKFDFCEPSFVTGNC

Variants of: B1
Assay: protein stability index of a GFP-peptide fusion (GPS, HEK-293T) (PSI 1-6); higher = more stable
Settings: c terminus: a fixed tail appended
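Further: lentivirally expressed fusions sorted by FACS into six bins by GFP to DsRed ratio, PSI derived from sequencing read proportions per bin multiplied by bin number.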

Protein stability index, by site and new letter:
I17: P 3.53; G 2.8; T 2.12; R 2.15; F 1.8; D 2.47; K 2.08; C 1.63; H 2.51; E 2.16; W 1.47; N 2.48; S 2.08; Y 1.2; V 2.38; Q 2; M 1.97; L 1.85; A 1.6
W22: F 2.79; H 3.98; D 3.88; N 4.3; I 1.68; G 1.72; E 4.21; K 4.47; L 2.15; C 1.5; Y 1.69; A 2.18; V 1.52; R 3.37; T 2.03; M 1.78; S 2.11; Q 3.08; P 3.93
S16: W 1.86; T 2.1; Y 2.83; Q 2.11; V 1.88; R 2.62
E23: R 1.85; K 2.53; D 1.62; V 3.22; L 1.83; Y 1.61; Q 2.06; M 2.36; G 4.39; I 2.4; F 2.53; A 3.07; P 1.65; C 1.87; N 2.14; S 2.66; W 2.83; H 2.59; T 1.76
E21: D 2.27; A 2.12; T 3.61; G 1.37; S 2.31; M 1.9; I 3.31; W 2.81; N 2.38; K 1.47; P 2.73; Y 1.93; R 3.58
A20: C 1.77; K 1.64; D 1.91; P 3.02; V 1.8; N 1.44; H 1.64; G 2.01; Y 2.08; T 2.25; F 1.54; R 1.25; S 1.88; Q 2.19; L 1.4; E 1.98; M 2.49; I 1.48
L19: M 2.12; A 2.59; Q 3.6; V 2.64; T 3.18; I 2.77; R 2.39; E 4.02; N 3.73; P 4.37; S 3.4; H 3.27; F 3.03; D 4.34; Y 2.88; C 2.79; W 2.5; K 3.58; G 3.04
M18: A 1.86; K 2.19; V 1.51; I 1.4; F 2.5; L 2.18; E 1.84; R 1.93; N 2.13; Y 2.39; Q 2.75; S 2.56; D 3.26; T 2.79; H 2.41; G 3.33; W 2.52; C 1.81; P 4.27
A24: D 2.5; Y 1.25; F 3.13; N 2.32; K 2.27; Q 2.54; T 2; H 2.49; C 1.99; I 1.96; W 1.59; E 1.87; M 3.31; V 1.91; L 1.59; G 2.11; P 2.49; R 1.73; S 1.72

Variants of: B2
Assay: as above
Settings: c terminus: a fixed tail appended

Protein stability index: each site, then its substitutions
T5: N 1.75; W 2.53; L 2.48; Y 2.88; P 3.1; M 2.69; F 2.61; S 3.67; I 3.08; D 2.37; H 2.39; V 3.03; K 2.38; Q 1.78; E 2.14; G 1.92; C 2.77; R 1.82; A 3.25
R4: I 1.55; A 3.21; Y 2.93; W 4.04; G 1.31; M 4.34; P 1.85; C 3.1; E 2.12; Q 1.74; T 3.27; K 1.99; F 2.52; N 1.65; V 2.33; L 2.8; H 2.45; D 2.08; S 2.39
I3: D 2.56; R 2.45; T 2.1; F 2.17; H 2; L 1.73; C 1.81; Y 1.81; K 2.07; N 1.98; E 2.04; V 2.18; Q 1.96; G 2.18; S 1.8; M 1.98; P 1.9; W 2.9; A 1.55
S6: T 3.34; Q 3.19; I 2.29; E 1.99; K 2.59; Y 2.48; G 2.33; D 3.28; F 2.43; P 2.53; A 2.04; R 3.11; W 2.61; N 3.26; V 2.23; C 1.99; M 2.53; H 2.91
F2: A 2.1; L 3.25; R 1.65; V 3.17; S 2.01; T 1.76; P 2.13; D 2.71; H 1.89; W 3.73; Y 2.58; C 1.92; I 2.55; M 1.81; N 2.35; K 2.06; Q 2.06; G 2.41; E 2.15
D7: A 2.62; E 3.48; V 2.77; I 3.18; W 3.44; S 3.69; H 1.69; T 3.2; R 1.98; Y 2.41; K 1.88; G 2.55; F 3.74; L 2.31; N 2.56; C 2.8
S8: R 2.44; H 3.25; E 1.91; P 2.35; D 1.95; L 3.06; Q 3.03; F 2.38; A 2.85; C 3.14; T 1.61; N 2.13; V 4.76; W 4; Y 3.02; I 2.54; M 1.94; K 1.72
D10: H 2.83; M 3.52; E 2.27; L 2.67; P 2.94; A 2.7; Q 2.54; G 2.61; R 2.56; I 2.31; T 2.81; N 2.72; C 3.08; V 3.82; S 2.22; K 3.06; F 3.53
F9: Y 2.82; H 2.24; K 2.16; Q 1.92; M 2.99; T 1.7; L 2.12; N 2.18; G 2.53; C 2.04; D 2.03; E 1.9; I 2.47; S 1.66; W 2.6; A 1.95; R 1.7; V 1.75; P 1.28
F1: V 2.15; T 1.8; E 1.97; K 2.4; S 2.31; I 1.81; M 2.32; R 2.42; C 2.93; W 2.04; Q 1.87; G 2.28; N 2.4; L 2.4; A 1.82; Y 2.39; H 2.19; P 2.6; D 2.41
